Assay results reported in patent US20240076343A1 (CEPHALON, published 2024).

Key:
[1] = molecular target: T1, native human PD-1 on PMA/ionomycin-activated primary human T cells (human, UniProt Q15116 25-288); assay: flow cytometry, activated human CD3+CD4+ T cells
T1 construct: whole, on cells; also called native hPD-1
Procedure: (§1) The binding of anti-hPD-1 antibodies and anti-hPD-1-attenuated hIL-2 fusion proteins on activated primary T cells expressing hPD-1 was examined by flow cytometry. […] Cells were then stained with 1:20 dilution of Allophycocyanin-conjugated anti-human IgG Fc to detect bound antibody. To delineate immune subsets, a cocktail of surface markers included anti-human CD3, anti-CD4, and anti-CD8 antibodies was used. […] Cells were analyzed on the BD Fortessa (BD Biosciences), FlowJo software version 10 was used to gate on T cell subsets then calculate gMFI of the allophycocyanin signal. EC₅₀ values were calculated from the gMFI across the titrated concentrations using GraphPad Prism 7 software. To test the binding of anti-hPD-1-hIL-2 fusion proteins, cryopreserved CD3+ T cells were activated with PMA/ionomycin and flow cytometry binding was performed identically as described above.

[2] = molecular target: T2, human PD-1 (amino acids 1-185) on transfected Jurkat cells (human, UniProt Q15116 21-185); assay: flow cytometry on Jurkat cells expressing hPD-1; cells pre-incubated with 10 µM anti-hPD-1 #1-mIgG2b-N297A
T2 construct: also called hPD-1; Jurkat+hPD-1 cell line
T2 sequence (Q15116 21-185 limits assumed): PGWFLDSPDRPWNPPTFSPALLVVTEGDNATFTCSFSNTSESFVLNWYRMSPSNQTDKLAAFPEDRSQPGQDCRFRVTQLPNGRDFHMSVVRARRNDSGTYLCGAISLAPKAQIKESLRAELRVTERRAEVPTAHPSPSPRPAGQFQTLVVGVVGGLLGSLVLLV
Procedure: (§2) Briefly, Jurkat cells stably expressing hPD-1 (as described in Protocol A above) were washed and re-suspended in FACS buffer containing 1:50 dilution of human FcR Blocking reagent. Cells were incubated at 4° C. for 10 minutes and washed. […] Cells were washed and incubated with test antibodies or antibody-attenuated hIL-2 fusion proteins serially diluted six-fold for an 8-point curve in 100 μL volume for one hour at 4° C. To detect bound test anti-hPD-1 antibodies or anti-hPD-1-attenuated hIL-2 fusion proteins, cells were washed again and incubated with 1:40 dilution of Allophycocyanin-conjugated anti-human IgG Fc monoclonal antibody for 45 minutes on ice. Cells were washed and re-suspended in FACS buffer containing 1:1000 dilution of Sytox Green (Thermo Fisher). […] Flow cytometry was carried out on the BD Canto II, BD Celesta, or BD Fortessa (BD Biosciences) flow cytometers and gMFI was calculated using FlowJo software version 10. EC₅₀ values were calculated from the gMFI of the Allophycocyanin signal across the titrated concentrations using GraphPad Prism 7 software.

[3] = molecular target: human PD-1 on Jurkat Effector cells of the PD-1/PD-L1 blockade bioassay (Promega, Cat #J1255) (human, UniProt Q15116 25-288); assay: cell-based or functional assay
Chain of human PD-1 on Jurkat Effector cells of the PD-1/PD-L1 blockade bioassay (Promega, Cat #J1255) (Q15116 25-288): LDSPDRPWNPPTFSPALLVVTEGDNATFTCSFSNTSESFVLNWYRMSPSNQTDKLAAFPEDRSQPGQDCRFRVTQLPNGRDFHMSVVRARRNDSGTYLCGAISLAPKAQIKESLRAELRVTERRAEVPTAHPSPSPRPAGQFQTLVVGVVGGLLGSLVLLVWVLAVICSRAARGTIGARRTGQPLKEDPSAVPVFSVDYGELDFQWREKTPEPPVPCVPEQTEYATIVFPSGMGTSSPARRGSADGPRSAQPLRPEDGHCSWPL

[4] = molecular target: T2, human PD-1 (amino acids 1-185) on …; assay: flow cytometry, Jurkat+hPD-1 cells; competitor 10 µM anti-hPD-1 #1-mIgG2b-N297A
Procedure: as §2

[5] = molecular target: T2, human PD-1 (amino acids 1-185) on …; assay: flow cytometry on Jurkat cells expressing hPD-1; cells pre-incubated with 10 µM anti-hPD-1 #2-mIgG2b-N297A
Procedure: as §2

[6] = molecular target: T2, human PD-1 (amino acids 1-185) on …; assay: flow cytometry on Jurkat cells expressing hPD-1; no competitor
Procedure: as §2

[7] = molecular target: T1, native human PD-1 on …; assay: flow cytometry, activated human CD3+CD8+ T cells
Procedure: as §1

[8] = molecular target: T3, human PD-1 on Jurkat cells (Jurkat+hPD-1) (human, UniProt Q15116 21-185); assay: flow cytometry on Jurkat cells expressing hPD-1
T3 construct: extracellular domain and a portion of the transmembrane domain, stably expressed on Jurkat cells
T3 sequence (Q15116 21-185 limits assumed): as the sequence (Q15116 21-185 limits assumed) above
Procedure: EC₅₀ values were calculated from the geometric mean fluorescent intensity (gMFI) across the titrated concentrations using GraphPad Prism 7 software.

T1 sequence (Q15116 25-288): as the sequence (Q15116 25-288) above

luminescence (RLU), PD-1/PD-L1 blockade bioassay [3]	EC50 [8]	Binder	also measured
–	5.36 nM	G12-hIgG4 (antibody, V domains shown) VH: DSLVESGGGLVQPGGSLRLSCAASGFTFDISAMSWVRQAPGKGLEWVSTISGSAYSTYYADSVKGRFTISRDNSKSTLYLQMNSLRAEDTAVYYCAREIFSDYWGLGTLVTVSS VL: QSVLTQPPSASGTPGQRVTISCSGSTSNIGRESVYWYQQLPGTAPKLLIYLNSQRPSGVPDRFSGSKSGTSASLAISGLQSEDVADYYCGTWDDSLNGWVFGGGTKLTVLG	–
–	9.67 nM	D12-hIgG4 (antibody, V domains shown) VH: DVQLVESGGGLVQPGGSLRLSCAASGFTFDISAMSWVRQAPGKGLEWVSTISGSAYSTYYADSVKGRFTISRDNSKSTLYLQMNSLRAEDTAVYYCAREIFSDYWGLGTLVTVSS VL: QSVLTQPPSASGTPGQRVTISCSGNTSNIGRESVYWYQQLPGTAPKLLIYSNVQRPSGVPDRFSGSKSGTSASLAISGLQSEDEADYYCGTWDDSLNGWVFGGGTKLTVLG	–
–	16 nM	OMC.1.D6-hIgG4 (antibody, V domains shown) VH: EVQLLESGGGLVQPGGSLRLSCAASGFTFSDYYMSWVRQAPGKGLEWVSAISSSGGTIFYADSVKGRFIISRDNSKNTLYLQMNSLRAEDTAVYYCAKHKWNDVYYDAMDVWGQGTTVTVSS VL: QSVLTQPPSASGTPGQRVTISCSGSNSNIGRNLVNWYQQLPGTAPKLLIYTVDQRPSGVPDRFSGSKSGTSASLAISGLASEDEADYYCAAWDSSLNSWVFGGGTKLTVLG [OMC.1.D6-hIgG4, listing 1 of 2 here]	–
~3000 RLU	–	OMC.1.D6-hIgG4 (antibody, V domains shown) VH: EVQLLESGGGLVQPGGSLRLSCAASGFTFSDYYMSWVRQAPGKGLEWVSAISSSGGTIFYADSVKGRFIISRDNSKNTLYLQMNSLRAEDTAVYYCAKHKWNDVYYDAMDVWGQGTTVTVSS VL: QSVLTQPPSASGTPGQRVTISCSGSNSNIGRNLVNWYQQLPGTAPKLLIYTVDQRPSGVPDRFSGSKSGTSASLAISGLASEDEADYYCAAWDSSLNSWVFGGGTKLTVLG [OMC.1.D6-hIgG4, listing 2 of 2 here]	–
–	2.05 nM	C51E6-5-hIgG4 (antibody, V domains shown) VH: QVQLVQSGSELKKPGASVKVSCKASGYSLYGTSMHWVRQAPGQGLEWMGYISPFTGRATYAQGFTGRFVFSLDTSVSTAYLQISSLKAEDTAVYYCARDYDYRYYYAMDYWGQGTTVTVSS VL: EIVLTQSPDFQSVTPKEKVTITCTASESVPPQFLHWYQQKPDQSPKLLIYASRERASGVPSRFSGSGSGTDFTLTINSLEAEDAATYYCHQFHRSPLTFGGGTKLEIKR	–
~3000 RLU	–	OMC.2.C6-hIgG4 (antibody, V domains shown) VH: EVQLLESGGGLVQPGGSLRLSCTASGFTFSSYEMQWVRQAPGKGLEWVLGITSSSSHIFYADSVKGRFTVSRDNSKNTLYLQMNSLRAEDTAVYYCTKDLNSYYGLDVWGQGTTVTVSS VL: QSVMTQPPSASGTPGQRVTISCSGSTSNLGNNYVSWYQHLPGTAPKLLIYGNDQRPSGVPDRFSGSKSGTSASLAISGLQSDDEADYYCSSWDASLNVWVFGGGTKLTVLG [OMC.2.C6-hIgG4, listing 1 of 2 here]	–
–	11.5 nM	OMC.2.C6-hIgG4 (antibody, V domains shown) VH: EVQLLESGGGLVQPGGSLRLSCTASGFTFSSYEMQWVRQAPGKGLEWVLGITSSSSHIFYADSVKGRFTVSRDNSKNTLYLQMNSLRAEDTAVYYCTKDLNSYYGLDVWGQGTTVTVSS VL: QSVMTQPPSASGTPGQRVTISCSGSTSNLGNNYVSWYQHLPGTAPKLLIYGNDQRPSGVPDRFSGSKSGTSASLAISGLQSDDEADYYCSSWDASLNVWVFGGGTKLTVLG [OMC.2.C6-hIgG4, listing 2 of 2 here]	–

Further lines, the binder ahead of its results:

Binder	luminescence (RLU), PD-1/PD-L1 blockade bioassay [3]	EC50 [8]	also measured
A2-hIgG4 (antibody, V domains shown) VH: DVQLVESGGGLVQPGGSLRLSCAASGFTFDISAMSWVRQAPGKGLEWVSTISGSAYSTYYADSVKGRFTISRDNSKSTLYLQMNSLRAEDTAVYYCAREIFSDYWGLGTLVTVSS VL: QSVLTQPPSASGTPGQRVTISCSGSTSNIGRESVYWYQQLPGTAPKLLIYSNVQRPSGAPNRFSGSKSGTSASLAISGLQSEDEADYYCGTWDDSLNGWVFGGGTKLTVLG [A2-hIgG4, listing 1 of 2 here]	~3000 RLU	–	EC50 [1]: 30 nM; EC50 (read off the curve) [2]: ~10 nM; fold shift of the dose-titration curve [4]: < 10 fold; EC50 (read off the curve) [5]: ~20 nM; EC50 (read off the curve) [6]: ~6 nM; EC50 [7]: 22 nM
A2-hIgG4 (antibody, V domains shown) VH: DVQLVESGGGLVQPGGSLRLSCAASGFTFDISAMSWVRQAPGKGLEWVSTISGSAYSTYYADSVKGRFTISRDNSKSTLYLQMNSLRAEDTAVYYCAREIFSDYWGLGTLVTVSS VL: QSVLTQPPSASGTPGQRVTISCSGSTSNIGRESVYWYQQLPGTAPKLLIYSNVQRPSGAPNRFSGSKSGTSASLAISGLQSEDEADYYCGTWDDSLNGWVFGGGTKLTVLG [A2-hIgG4, listing 2 of 2 here]	–	5.97 nM	–
OMC.1.B6-hIgG4 (antibody, V domains shown) VH: EVQLLESGGGLVQPGGSLRLSCAASGFTFSSNYMSWVRQAPGKGLEWVSAISSSGGTIFYADSVKGRFTISRDNSKNTLYLQMNSLRAEDTAVYYCAKHKWNAVYYDGMDVWGQGTTVTVSS VL: QSVLTQPPSASGTPGQRVTISCSGSNSNIGRNLVNWYQQLPGTAPKLLIYTIDQRPSGVPDRFSGSKSGTSASLVISGLQSEDEADYYCAAWDGSLNAWVFGGGTKLTVLG [OMC.1.B6-hIgG4, listing 1 of 2 here]	~3000 RLU	–	–
OMC.1.B6-hIgG4 (antibody, V domains shown) VH: EVQLLESGGGLVQPGGSLRLSCAASGFTFSSNYMSWVRQAPGKGLEWVSAISSSGGTIFYADSVKGRFTISRDNSKNTLYLQMNSLRAEDTAVYYCAKHKWNAVYYDGMDVWGQGTTVTVSS VL: QSVLTQPPSASGTPGQRVTISCSGSNSNIGRNLVNWYQQLPGTAPKLLIYTIDQRPSGVPDRFSGSKSGTSASLVISGLQSEDEADYYCAAWDGSLNAWVFGGGTKLTVLG [OMC.1.B6-hIgG4, listing 2 of 2 here]	–	7.42 nM	–
2H7-hIgG4 (antibody) heavy: not shown light: EIVLTQSPGTLSLSPGERATLSCRASQSIGKSFLAWYQQKPGQAPRLLIYDASTRAADIPARFSGSGSGTDFTLTISSLEPEDFAVYYCQQYYDWPPLSFGGGTKVEIKRTVAAPSVFIFPPSDEQLKSGTASVVCLLNNFYPREAKVQWKVDNALQSGNSQESVTEQDSKDSTYSLSSTLTLSKADYEKHKVYACEVTHQGLSSPVTKSFNRGEC	–	0.277 nM	–
H7-632-hIgG1-LAGA (antibody, V domains shown) VH: EVQLLESGGGLVQPGGSLRLSCAASGFTFKSYAMHWVRQAPGKGLEWVSAIVYSGGSTYYADSVKGRFTISRDNSKNTLYLQMNSLRAEDTAVYYCAKYDRASYFYDAMDVWGQGTTVTVSS VL: EIVLTQSPGTLSLSPGERATLSCRASQSISSSFLAWYQQKPGQAPRLLIYDASDRATGIPDRFSGSGSGTDFTLTISRLEPEDFAVYYCQQYYDWPPLSFGGGTKVEIKR	–	0.115 nM	–
